Results published in publication PMC7563123 (Biomolecules, 2020).

Key:
Details in all cases: both partners purified
[1] = target: T1, amyloid beta peptide 1-42 (Aβ1–42) (human, UniProt P05067 672-713); experiment: SPR; oligomeric Aβ1–42 (Preparation A, dilution of the stock), 1.1-0.055 μM, flowed over cypD or 17β-HSD10 captured by immobilised antibody; running buffer RB1 (10 mM HEPES pH 7.4, BSA 200 μg/mL, 5 mM Na+, 140 mM K+, 1 mM Mg2+); 25 °C, 20 µL/min; global fit, 1:1 Langmuir model
T1 construct: amyloid beta peptide of 42 amino acids, human, produced from amyloid precursor protein; numbers count on: the Aβ peptide; One peptide used in two states; Preparation B (NaOH) is called monomeric, though it might hold monomers and low oligomers; Preparation A (plain dilution of the stock) is called oligomeric, and the size of the oligomers is not determined; The states are told apart by the …

[2] = target: T1, amyloid beta peptide 1-42 (Aβ1–42); experiment: SPR; monomeric Aβ (Aβ1–40 by Preparation C, HFIP; Aβ1–42 by Preparation B, NaOH), five concentrations, flowed over cypD or 17β-HSD10 captured by immobilised antibody; running buffer RB1 (10 mM HEPES pH 7.4, BSA 200 μg/mL, 5 mM Na+, 140 mM K+, 1 mM Mg2+); 25 °C, 20 µL/min; global fit, 1:1 Langmuir model
[3] = target: T2, amyloid beta peptide 1-40 (Aβ1–40) (human, UniProt P05067 672-711); experiment: as above
T2 construct: amyloid beta peptide of 40 amino acids, human, produced from amyloid precursor protein; numbers count on: the Aβ peptide; Stock dissolved in 1% NH4OH and diluted by PBS to 100 μM; Preparation C (HFIP) is called monomeric, though it might hold monomers and low oligomers; also called monomeric Aβ_(1–40); source: synthetic peptide, bought: AnaSpec

B1: cyclophilin D (cypD), human recombinant (enzyme)
chain: not shown
notes: cyclophilin D, human recombinant, NCBI Gene ID 10105; Commercial protein; It was held on the chip by an immobilised anti-cypD antibody; source: bought: Fitzgerald
Kd [1]: 5.3 ± 1.2 nM
koff [1]: 6.1e-05 s⁻¹
kon [1]: 11100 M⁻¹ s⁻¹
Kd [2]: 56.5 ± 5.4 nM
koff [2]: 0.000139 s⁻¹
kon [2]: 2690 M⁻¹ s⁻¹
Kd [3]: 160 ± 57.8 nM
koff [3]: 0.000174 s⁻¹
kon [3]: 1170 M⁻¹ s⁻¹
